According to patent US20170174789A1 (Regeneron, published 2017):

T1: hTie2-mFc (human)
T1 chain: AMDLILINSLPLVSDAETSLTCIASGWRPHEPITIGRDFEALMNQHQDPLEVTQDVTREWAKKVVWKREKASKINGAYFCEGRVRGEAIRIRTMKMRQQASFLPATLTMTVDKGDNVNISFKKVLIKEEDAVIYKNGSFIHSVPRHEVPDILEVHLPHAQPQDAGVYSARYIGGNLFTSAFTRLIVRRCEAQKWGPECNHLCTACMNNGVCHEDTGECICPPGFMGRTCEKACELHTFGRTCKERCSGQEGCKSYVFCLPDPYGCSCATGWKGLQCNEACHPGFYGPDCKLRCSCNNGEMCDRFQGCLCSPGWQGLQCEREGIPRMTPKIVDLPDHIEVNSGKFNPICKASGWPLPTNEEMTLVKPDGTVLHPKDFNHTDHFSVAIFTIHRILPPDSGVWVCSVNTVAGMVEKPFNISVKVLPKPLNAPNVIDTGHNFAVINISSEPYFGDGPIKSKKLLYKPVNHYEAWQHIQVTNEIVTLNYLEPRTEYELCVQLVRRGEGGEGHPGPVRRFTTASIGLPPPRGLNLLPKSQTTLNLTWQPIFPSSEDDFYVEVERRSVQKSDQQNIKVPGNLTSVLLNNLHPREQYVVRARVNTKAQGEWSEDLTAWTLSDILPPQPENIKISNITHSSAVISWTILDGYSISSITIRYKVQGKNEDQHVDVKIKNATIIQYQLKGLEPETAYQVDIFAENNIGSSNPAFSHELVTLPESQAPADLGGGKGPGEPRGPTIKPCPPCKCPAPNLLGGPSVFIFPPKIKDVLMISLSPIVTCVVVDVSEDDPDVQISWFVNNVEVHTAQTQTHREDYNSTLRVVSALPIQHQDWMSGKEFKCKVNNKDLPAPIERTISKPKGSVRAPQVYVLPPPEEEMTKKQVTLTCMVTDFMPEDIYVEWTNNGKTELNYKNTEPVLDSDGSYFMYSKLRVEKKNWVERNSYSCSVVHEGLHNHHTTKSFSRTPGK

B1: H1H2340B (antibody, V domains shown)
VH: EVQLVESGGGLVQPGGSLRLSCAASGFTFSRYWMSWVRQAPGMGLEWVANIKQDGSEKNYVDSVKGRFTVSRDNAKNSLYLQMNSLRAEDTAVYYCASAIFGVVITSYWGQGTLVTVSS
VL: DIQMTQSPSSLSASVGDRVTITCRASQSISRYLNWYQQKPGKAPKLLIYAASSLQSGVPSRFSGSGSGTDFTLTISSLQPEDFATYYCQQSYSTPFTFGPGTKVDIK
notes: Tested as H1H2340B (human IgG format, H1H prefix); also called HIH2340B
B2: H1H2339B (antibody, V domains shown)
VH: EVQLVESGGGLVQPGGSLRLSCAASGFTFSSYAMNWVRQAPGKGLEWVSSISGSGGNTYYADSVKGRFTISRDNSKNTLYLQLNSLRAEDTAVYYCAKDHSLSWYRNVFDIWGQGTMVTVSS
VL: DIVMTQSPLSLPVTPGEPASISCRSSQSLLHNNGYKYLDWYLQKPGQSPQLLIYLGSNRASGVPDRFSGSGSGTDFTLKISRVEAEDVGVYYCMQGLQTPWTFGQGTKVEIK
notes: Tested as H1H2339B (human IgG format, H1H prefix)

Experiments:
[1] = target: T2, hTie2-His (human, UniProt Q02763 23-745); experiment: blocking ELISA: antibody premixed with 0.8 nM biotin-hTie2-His, binding to plate-coated Bow-Ang2
T2 construct: also called ecto-Tie2 fused to 6xHis; biotin-Tie2-His
Experimental: Tie2 is known to interact with angiopoietins (Ang1, Ang2, Ang3 and Ang4). An initial set of experiments was therefore conducted to evaluate the ability of anti-Tie2 antibodies to block Tie2 binding to Ang2. In this first set of experiments, a quantitative blocking immunoassay was utilized. Briefly, solutions of 0.8 nM biotinylated ecto-Tie2 fused to 6×His (SEQ ID NO:2) were premixed with anti-Tie2 antibody ranging from ˜50 nM to 0 nM in serial dilutions. After a 1-hour incubation at room temperature, the amount of Tie2-His bound to plate coated Bow-Ang2 was measured by sandwich ELISA. Bow-Ang2 (SEQ ID NO:13), an Ang2 construct that comprises the Fc domain of hIgG1 flanked by one FD domain of Ang2 at both termini, was coated at 2 μg/ml on a 96 well microtiter plate and blocked with BSA. Plate-bound biotin-Tie2-His was detected using HRP conjugated streptavidin, and developed using BD OptEIA™ (BD Biosciences Pharmingen, San Diego, Calif.). Signals of OD₄₅₀ nm were recorded and data was analyzed using GraphPad Prism to calculate IC₅₀ values. IC₅₀s were defined as the amount of antibody required to reduce 50% of biotin-Tie2-His detectable to plate bound Bow-Ang2 ligand. In Table 9, an antibody is designated an “enhancer” if the addition of the antibody increases the amount of Tie2-His bound to the Bow-Ang2-coated surface relative to the no antibody control.

[2] = target: T3, hTie2 (FN) (human, UniProt Q02763 445-730); experiment: Luminex beads, 25 ug/ml mAb
T3 construct: also called hTie2 (FN)-hFc
T3 sequence (Q02763 445-730 limits assumed): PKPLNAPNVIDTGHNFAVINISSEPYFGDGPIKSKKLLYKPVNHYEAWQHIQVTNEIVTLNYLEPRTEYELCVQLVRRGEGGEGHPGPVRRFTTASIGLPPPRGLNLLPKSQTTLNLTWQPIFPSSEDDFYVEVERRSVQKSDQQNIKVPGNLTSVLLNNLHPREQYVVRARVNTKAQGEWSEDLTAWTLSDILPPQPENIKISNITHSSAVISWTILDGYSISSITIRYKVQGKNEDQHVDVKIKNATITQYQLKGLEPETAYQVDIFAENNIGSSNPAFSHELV
Experimental: (§1) For binding, 25 μl of anti-Tie2 antibody (25 μg/ml) was added to 75 μl of the above created Luminex bead mixture (3×10³ beads per construct) in binding buffer (PBS, 0.05% Tween 20, 1 mg/ml BSA, 0.05% sodium azide) into a 96 well filter plate (Millipore). Incubation was at room temperature (RT) for 90 min or overnight at 4° C. with shaking. The beads were washed 3× with washing buffer (PBS+0.05% Tween 20) resuspended in 100 μl binding buffer containing PE (phycoerythrine)-labeled anti human kappa or PE-labeled anti mouse Fab secondary antibody and incubated at RT for 45 min with shaking. Samples were washed 2× more and binding signal (MFI) for each bead was determined using a Luminex L200 or FLEXMAP3D instrument. Bead linked human Tie2 was used as positive control and bead linked human Tie1 was used to measure family cross-reactivity. In general MFI signals greater than 500 units represent significant binding.

[3] = target: T4, hTie2 (Ig3-FN) (human, UniProt Q02763 350-730); experiment: Luminex beads, 25 ug/ml mAb
T4 construct: also called hTie2 (Ig3, FN)-hFc
T4 sequence (Q02763 350-730 limits assumed): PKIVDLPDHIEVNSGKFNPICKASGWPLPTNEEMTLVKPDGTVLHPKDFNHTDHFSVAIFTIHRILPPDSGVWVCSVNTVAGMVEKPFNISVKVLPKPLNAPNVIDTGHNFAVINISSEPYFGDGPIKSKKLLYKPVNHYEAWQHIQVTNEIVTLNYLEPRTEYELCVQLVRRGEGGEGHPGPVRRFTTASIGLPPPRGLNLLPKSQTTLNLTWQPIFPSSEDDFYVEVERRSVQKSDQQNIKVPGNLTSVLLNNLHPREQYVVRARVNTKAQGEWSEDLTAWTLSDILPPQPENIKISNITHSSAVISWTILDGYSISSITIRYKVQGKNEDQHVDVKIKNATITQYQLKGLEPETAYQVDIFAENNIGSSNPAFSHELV
Experimental: as §1

[4] = target: T1, hTie2-mFc; experiment: Luminex beads, 25 ug/ml mAb
Experimental: as §1

[5] = target: T5, hTie2 (Ig1-Ig2-EGF) (human, UniProt Q02763 24-344); experiment: Luminex bead binding
T5 construct: Domain-deletion construct; also used for H/D exchange
Experimental: as §1

[6] = target: T6, hTie2 (EGF) (human, UniProt Q02763 210-344); experiment: Luminex bead binding
T6 construct: Domain-deletion construct linked to Luminex beads
T6 sequence (Q02763 other isoform, or with tags, fused parts or gaps limits assumed): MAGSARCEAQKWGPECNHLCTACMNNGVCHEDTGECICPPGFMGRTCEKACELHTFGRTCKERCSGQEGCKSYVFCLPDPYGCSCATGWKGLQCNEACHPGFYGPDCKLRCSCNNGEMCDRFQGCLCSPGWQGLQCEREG
Experimental: as §1

[7] = target: T7, hTie2 (Ig2-EGF) (human, UniProt Q02763 121-344); experiment: Luminex bead binding
T7 construct: Domain-deletion construct linked to Luminex beads
T7 sequence (Q02763 other isoform, or with tags, fused parts or gaps limits assumed): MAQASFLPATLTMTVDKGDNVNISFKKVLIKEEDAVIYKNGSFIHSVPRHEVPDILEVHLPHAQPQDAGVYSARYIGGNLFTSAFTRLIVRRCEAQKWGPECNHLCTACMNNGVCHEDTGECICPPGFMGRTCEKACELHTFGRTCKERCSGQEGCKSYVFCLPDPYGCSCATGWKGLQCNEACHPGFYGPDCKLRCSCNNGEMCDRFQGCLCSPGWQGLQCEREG
Experimental: as §1

| Binder | IC50 [1] [nM] | MFI [2] [MFI] | MFI [3] [MFI] | MFI [4] [MFI] | binding result [5] | binding result [6] | binding result [7] |
| --- | --- | --- | --- | --- | --- | --- | --- |
| B1 | 1.03 | 5150 | 4600 | 3010 | no binding (tested: MFI >500 = significant binding) | no binding (tested: MFI >500 = significant binding) | no binding (tested: MFI >500 = significant binding) |
| B2 | 0.189 | 4530 | 3840 | 2910 | no binding (tested: MFI >500 = significant binding) | no binding (tested: MFI >500 = significant binding) | no binding (tested: MFI >500 = significant binding) |
